Data reported in the DeepSol protein solubility set.

Assay: soluble on expression in E. coli; label from the status in PepcDB or PDB records

Sequence	soluble on expression in E. coli
MSKSSNSDSQKSLPSPGHPSTGRPDLDLITDPLEEQRLEPQRDSHRSDTRGHPSTGRKSHNSTSAQSSVYNSRTDPENAAMDSDEELRKMMEGFVDDEESDPTYEPP	soluble
MGSDKIHHHHHHMNNPISDDYRNLLVEVKQRIRSAQYEALKAVNKELIALYWDIGKMIVTQQQEADWGKSVVEQLAKDLQTEFPGISGFSTRNMWNMRSFYIAYSQNEKLQPLVAEIGWTHNIVILEKCKDDLEREFYLRMTRKFGWTKNVLIHQIENQTYEKTLLNQTNFNQTVPAEIRNQLKLAVKDEYTFDFLELADEHSERQLEQAILARVEPFLQEMGGRFTFVGSQYRLEIGDQEFFIDLLLYHRQLKCLVAVELKTGEFLPEYVGKMQFYLAALDDLSRLPDENLSIGIILCKSKNKTIVEYALRESNKPIGVATYKVFSSLPQDLRNQLPAPEQVAKLLEGVE	not soluble
SLREMKHLRSIEQEIKMSIPSQEVPTIEDVVEKQKESWKKQIAHRIEKGSNQKHLFEQMTEELMAEYDSKEVISALLQLNYAMDTAPEDAGYSFGETGGAKGMVRFFINVGRNVNMSPKILVEEIAELVGIPGKAIGRIDIFEKFTFVEVPEEVAPFVYEALRYSRINGARVNLEPAKPRPKRESQRRTFQK	soluble
MAHHHHHHMSELKIGFLGCGSMGECIMAGLLKAKALGPENTFICNRSASTNERLVSLYQVKSVSAVELAEKSDIIMLGVKPYGIVPVLETIKEKITPSKLVVSMAAGVPIATIENHCPPKTKVVRVMPNIPSYVGEGVTSISGNSAVTPDDEAVVMKLFSAIGKSYLVAESAIHGVVGVAGSSPAYVFMFMEALSDGAVRGGIPRAQSYEMAAQAVLGAAKMLQDSGKTPSALKDMVCSPGGTTIEAVRFLEKGGMRSSIIEAMIQCMEKSKEFERMYSE	soluble
MSLFPNYEFSFRPIARKFVRSLVTSHGIWEVREAIILRLTDTTGKVGWGEIAPISWFGSETLAQALDFCRQLPEEITQEIIFSIPDDLPACQFGFESALEAMGSGEDVTITNAQFSALLPAGEAALHQWQSLWDEGYRTFKWKIAVGEVAQELRIFDSLTQILPASAKLRLDANGGLSYPEAHLWLQACDNLPVEVEFIEQPLPVEQFSQMLELSEAYPTAIALDESVANLKQLAACYAQGWRDVFVIKPAIAGSPSRLRQFCQQHEIDAVFSSVFETAIARKASLQLAAELSRDNRAVGFGVNHLFHQEAENWLQSLWNNPEGHHHHHH	soluble
MAELQMLLEEEIPGGRRALFDSYTNLERVADYCENNYIQSADKQRALEETKAYTTQSLASVAYLINTLANNVLQMLDIQASQLRRMESSINHISQTVDIHKEKVARREIGILTTNKNTSRTHKIIAPANLERPVRYIRKPIDYTILDDIGHGVKVSTQNMKMGGLPRTTPPTQKPPSPPMSGKGTLGRHSPYRTLEPVRPPVVPNDYVPSPTRNMAPSQQSPVRTASVNQRNRTYSSSGSSGGSHPSSRSSSRENSGSGSVGVPIAVPTPSPPSVFPGHPVQFYSMNRPASRHTPPTIGGSLPYRRPPSITSQTSLQNQMNGGPFYSQNPVSLAPPPPSILQVTPQLPLMGFVARVQENISDTPPPPPPVEEPVFDESPPPPPPPEDYEEEEAAVVEYSDPYAEEDPPWAPRSYLEKVVAIYDYTKDKEDELSFQEGAIIYVIKKNDDGWYEGVMNGVTGLFPGNYVESIMHYSE	soluble
MLRSIICNMCNLSDESKQFEMTPPSSNLSSLFPTGRAVRNPFGKVYFVVILKGKAMVRIDGKSMLLLERTFLFLPPGHLLLRLSCTQDFLFQYLSFSFDFLSDFPLLLKADISNQVTNAPCLPMSPEDFSLIKMYYHFIYHRYLDAECPSEVIKGMLFSLVLEVCRMYSGRNISVEMSRQDKLVDGFFSLLHKYCTQERMAAFYASRLCISDKYLMRSIKKQTGQTFHYWMADFILREAKLMLRSTDLSVTEIADKLSFPNSSSFARFFRKYTGFSPVQFRNEA	not soluble
MGRLFVVNLEGKIYSCKHCKTHLATYEDIISKSFHCKHGKAYLFNKVANVSIGETEERLMMTGKHTVADIFCVSCGSIVGWKYETAHEKNQKYKEGKSVLERFKISGPDGSNYWVSSHGRHIGGSDADDA	soluble
MMKNDEQDDVDVVNVPTNIDFQCNLCEYVGKSDRSLSAHKRHRHPRPEGQEDDKKPRGRPKKYEDSPVPLQRVTTKQLLGGRKRPKTIVECVDDSAIRTDKEASRLHGLGIIDEETSLGDYVRRGANYQLMGGSDMNLDGNSMIVGQEVVIDHEEDEENDDSPMLDSIPAGKNLERRKIRKSGRACASIRLSAKNRQISRSSHMRKVHPNEHAERKRNAPGYNSNGTYNCHFPLCQWRGWSRSTRSTHLRKAHPEWRPDDNRVMTVLSCFYCKSSFHTYAQLADHTITHGGLALMISQSFDNKHHFSAWLQQMERVYSVTFERSEFGSDPELQDLHNYVLHCDCVGGRGEQLATDSRAYIDQKHTNFKFSGAYIYQKHNFLKRRHPQLLTRNKNDCCVHLEVREDSEYGPIHVKGTLEHTGHRFGTPLLRMLFEGFTMDHYTTPRSVILMEPLHTNQFQSLREFIEAPSTSTYQNPYFSVDFGDSPEQFSFGYMSDEMQKLWSKYAPGRTITIDSSPLEFGEVDLFQYSVIVTDENYIPKCAMIYVTTDNSRAPHTILRQMKAVEPRPPTIFMVDPSQLWVELIQDLWPTDLDNPESEVTILISEWTLMDYWAAKTEELVKNEFDVFCIVTALRRMLRVEDAHQLYYTIVELFEAFFECGYDGLAEFFDAQLSDMEYFKRWGPLHRTTLTSHAHPTLGASFRILRDWYLNPANMDHDAPRVDQWFSHICQRIEDFNAITNTQTYTLRPLDPPHKFFYTTVEDEEGEEAEHENPFKNPQILMYDDDGDEVVVEEEIIGHEIDGASELQGSELPDEEVIYETYEDYPEYGGHYDLEEEHKMHHNMRLEEEELQQHLHEQQKPEHLSHQTEELGELQDHHHHHHHHLDEDPEATAEGPSEIVEHDDEEEQEDLVDVEMVDDQHEQHEIPAKIPPHRQRLYQKLDPMPVISHELPRSPSRRIRIPTRKIQELDQESVLPPPPRRETTRSVVRSRKRRDRFAELRDCPPEVMRAIAAHAIAYDGRKKEQRPIVYVPRQAKMAMSSTPTAPTPPEDYDGPPGHQMTTILQHQRQAKQEEEEEQWSGEYDDELHEQEHDPATSSPPPSLLPHTGPSEIVHHEEEVHMMLPEEEADLMDDDDQQPCTSASMYR	soluble
MAHHHHHHMIICNNNVNHFWKNIKKNIRLDGRTFEDSRNVCINFLKDYGHVEISIGFTKVICKITSEIVKPHDRKLKEGILKINLDIDNFIEDNENSDNMSDECLEIKNIIDRVLKTSNIINFESLCIIPGKKVWCICINIMVIENDGNLTDACYLSAYCGLVHFKNHQVRVIKNGDIIIDKEEINYSPLSILNSPIVTTFAYYEEHDVCLIDPCLHEEEFMSSKISIALNKNGNLISLLKPGGIPLACSHIMESIEIAKKRILTILKILEDTLEEDKNIRSYLTKRNLHVKYSSAPVTIRYDNSFKLKPDISLERYTKNTLIFEDTIKKIEQYIQYNQVQECLNNMNVKLEENDQEEIETCTLKGEGNLNNPNFIDPMRNTNLLNPTDITIIKRQEFVDNHYDANNNKYNTQANKTFKKELIDFSNLLTQNHKKSNNLSNNQKDISEQHDNSQESSDDASTIRSDESSDIDFSVAINQNIKKKK	not soluble
MTRNAPPGQESTDLAWLVTPAKDLVENFSIDVLKALAGYLEVIRQESEDTDNQVDAATTYRLFDFQRACRIIQGSCAVYGRKVDHVYELTISVVDLVENKGQDDGNTGSRRGAGRRKNFNLGSTNYDLADIDSLKQEALANFEKTVKEEKKSIDAVRMVENAEVIESQYERKSCLVAKPTQFMFKLNYGQLNRTDEQILNAKSRPDVIGKVKDFEIKKSKVKHDQQILYSHDCYRGNLDQFTLPGARWMPDNKELAANFGVADLEVELDLEQEHEKISAYGPFKDPLSGREVVPPPRWFIEQEAVRQNQEIQSRATSRAITIAAKTLRDSQGFGSQPTRLSQPFVERHRQSNHLNDFLSFVEGRVNKNRPSTHLTTGLVDMFVDNFGSVMQNDEPNTSRRPDENYAPMDFDDDFGGGGDDDDDDYIRNLSRRDEKRAPAPWDELDKNHIIWYTGDENLPVVSKPVKKITKFQPKPAEMLARKQRREEKINKSRRDEFMETHDYLQDYYYWRSAARINPIKDWKIESLRTAILAEKKRRIKEKTAKIREARIQNMQRKRTARVIPVEQFEPVTEDIPTSNRRTLGAEYDDVVDEDLAAEVELSMFGGGFDDDEEDVRPRGERPPMAPNNLEFDALQTDFDIPPAEYVPLRFEDIDDAELNSVINLPGNLLIDKALPLLKKFAENRTDREQMAYEMAKAYEDVDVAVSTLQEHVDKWHSRMEPILEEGETRKEYDVHAVGRAVIGQYDIEGGTKRLLDLVMDRPWYEISRYFLSCLFMCNVGNVMVSEDMELPLEERINSMKITLLKRDMHCEMFKEAGALDA	not soluble
HGPAPLDLDKYVEIARLCKYLPENDLKRLCDYVCDLLLEESNVQPVSTPVTVCGDIHGQFYDLCELFRTGGQVPDTNYIFMGDFVDRGYYSLETFTYLLALKAKWPDRITLLRGNHESRQITQVYGFYDECQTKYGNANAWRYCTKVFDMLTVAALIDEQILCVHGGLSPDIKTLDQIRTIERNQEIPHKGAFCDLVWSDPEDVDTWAISPRGAGWLFGAKVTNEFVHINNLKLICRAHQLVHEGYKFMFDEKLVTVWSAPNYCYRCGNIASIMVFKDVNTREPKLFRAVPDSVRASSPSPL	soluble
MRVKTGVVRRRRHKKVLKLARGFYSGRRKHFRKAKEQLERSMYYAFRDRKQKKREFRSLWVVRINAACRMHNTSYSRFMHALKVANIELDRKVLADMAMNDMQAFTSVLESVKEHLLEHHHHHH	soluble
MAMTLAEKILAKASGNTQVSPGDIVMAKVETAMVHDITGPLSVNTLKKEGISKVWDNEKIVIPFDHQIPADSINAAENHILMRNFVKEQNIKHFYDIREGVCHQVLPEKGHIVPGTVVVGADSHTCTYGAFGAFATGIGSTDMAAAFATGELWFKVPET	not soluble
SPWSQDRVEHLYEQVAAENSVDLLKKGQFQGTPDGSSVVFIDDIKDSTLSNVFVAQMRPRDSVLPSVMFSSSGEVKELSDGRQVITMQEGTRYEGVPTRVEYMITKFDEYEGVIGQREVKQKGRDWEAYPTADLIGHPDPEAQAELQWR	not soluble
MCGIVGANSTRNVTNILIEGLKKLEYRGYDSAGLAIIDDKNNIDICKEVGKVIELEKSVHNLANFKGDIGIAHTRWATHGKPSKNNSHPHASESFCIVHNGVIENFAELKKVLINDGYKFKSDTDTEVIAHLLQKEWRDNFSIVDNIKYIMAMLKGAYAVAIISQKFSDKIVAVRSGSPLVIGVGIDENFISSDALSLLPVTNKFSYLDEGDIAIISKDNVEVFDNNGAAKNLEVEEYNYSSSSASKDGYKHYMLKEIYEQPEAVSNTILASLADGEISLDSFDKRAKELFEKTKHICIVACGTSYNAGMTAKYWIEKYAKVPCSVEIASEIRYRDNVVVDGSLFVSISQSGETADTLESLRKSKKQNYVGSMCICNVPNSSLVRESDIAFMTKAGVEIGVASTKAFTTQLVALAIFTLVIAKLKNSLTDQQIAKYTEELKNIRALVMGALKLDTEIDQISEYFSDKEHTIFLGRGLYYPIAIEGALKLKEISYIHAEAYPSGELKHGPLALVDKNMPIVAVVPNDELLDKTLSNLQEVHARGGKLILFVDKAVKERVNFDNSIVLELDAGHDFSAPVVFTIPLQLLSYHVAIIKGTDVDQPRNLAKSVTVE	not soluble
GINAGKMAMIVTDKGEQVTKAINACCNRGSTILKGMGGYKMDKKEVVICACNNKEMFFVQQVVKEVDPAAFTVVLESNEVHGEGFKMFQIGEGNVTVQTGLRSCCADRAKMQRQ	not soluble
MTVNVVVTDMDGTFLDDAKQYDRVRFMAQYQELKKRNIEFVVASGNQYYQLISFFPELKDEISFVAENGALVYEHGKQLFHGELTRHESRIVIGELLKDKQLNFVACGLKSAYVSKNAPETFVALMAKHYHRLQPVNDYHDIDDILFKFSLNLPDEQIPLVIDKLHVSLDGIMKPVTSGFGFIDLIIPGLHKANGISRLLKRWNRSPQNVVAIGDSGNDAEMLKMAHYSFAMGNAADNIKALSRYHTDDNNHQGALNVIQAVLDGTDPF	not soluble
